Consider two molecules from paper PMC12646661 (The Journal of Clinical Investigation, 2025).

The assay has as its target T1, rN2 (A/Hong Kong/1/1968), soluble recombinant neuraminidase (influenza A virus A/Hong Kong/1/1968 …).
T1 chain: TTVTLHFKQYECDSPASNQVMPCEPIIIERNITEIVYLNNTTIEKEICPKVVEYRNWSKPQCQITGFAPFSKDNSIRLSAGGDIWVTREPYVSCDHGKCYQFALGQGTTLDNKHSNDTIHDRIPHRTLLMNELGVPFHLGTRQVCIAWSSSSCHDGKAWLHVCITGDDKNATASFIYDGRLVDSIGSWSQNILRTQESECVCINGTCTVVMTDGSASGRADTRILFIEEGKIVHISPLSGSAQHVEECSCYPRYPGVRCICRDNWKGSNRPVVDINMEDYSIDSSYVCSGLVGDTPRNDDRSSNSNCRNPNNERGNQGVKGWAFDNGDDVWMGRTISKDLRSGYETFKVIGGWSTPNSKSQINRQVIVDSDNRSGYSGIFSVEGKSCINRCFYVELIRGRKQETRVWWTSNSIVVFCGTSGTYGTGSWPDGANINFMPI
Description: ELISA. The settings on record: both partners purified. (In general: ELISA stands for enzyme-linked immunosorbent assay.)

B1: rFNI9 (recombinant version of the broadly neutralizing NA antibody FNI9) (antibody, V domains shown)
VH: QVHLVQSGAEVKEPGSSVTVSCKASGGSFNNQAISWVRQAPGQGLEWMGGIFPISGTPTSAQRFQGRVTFTADESTTTVYMDLSSLRSDDTAVYYCARAGSDYFNRDLGWENYYFASWGQGTLVTVSS
VL: EIVMTQSPATLSLSSGERATLSCRASRSVSSNLAWYQQKPGQAPRLLIYDASTRATGFSARFAGSGSGTEFTLTISSLQSEDSAIYYCQQYNNWPPWTFGQGTKVEIK
As for B1, the binding result was “binds”.

B2: r1G01 (recombinant version of the previously described mAb 1G01) (antibody, V domains shown)
VH: EVQLVESGGRALRPGGSLRLSCAASGFKFDDYAMSWVRQVPGKGLEFVSGLNWNGDITAYTDSVKGRFTVSRDNAKNSLYLHINSPKPEDTALYYCARTSSWGDYTRGPEPKITWYFDLWGRGTLVTVSS
VL: DIQLTQSPSFLSASVGDRITITCRASQGIDGYLAWYQQRPGKAPNLLIYAASLLQSGVPSRFSGSGYGTEFTLTISSLQPEDFATYYCQHLDSYPLFTFGPGTKVDIK
B2: the binding result is “binds”.
